# ± gives the uncertainty stated by the source.
# Experiment: amyloid nucleation score (Sup35N fusion, yeast selection) (log enrichment); library NNK2; higher = more nucleation; inactive = no reads after selection
# Outline: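 Yeast lacking psi expressed peptides of 20 random codons fused to Sup35N, received 100 μM copper sulfate for 24 hours, and were then grown for 7 days at 30°C on medium lacking adenine and uracil. Illumina sequencing of input and output plasmid inserts provided the reads. Nucleation scores are DiMSum log enrichments of output over input, centred on the mode of non-aggregating sequences. Any sequence with under 100 input reads was excluded.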
row,Substance,amyloid nucleation score
1,GSLTDLFGWDESCFRCTALC,3.79 ± 0.092
2,LRGLSAPACKYQWQDEMYD,-0.628 ± 0.45
3,SSSAIHLRFNYCYHCFHSLT,5.08 ± 0.065
4,PRFIQGYILRNLCARMLKYS,-0.368 ± 0.39
5,MCFSIRPPGVMRVMHLTLVW,0.135 ± 0.79
6,VRPRAPSSADNPLQ,0.121 ± 0.49
7,VNTTDKWKVSEYKYQND,0.254 ± 0.19
8,STMRSWAAC,4.25 ± 0.091
9,AVFTIFALVRS,1.08 ± 0.51
10,RQSFVVDNNELCKFTCDYSC,7.376 ± 0.043
11,ARYLITTAQVPVLGPRSQHK,0.073 ± 0.41
12,YFFKRIW,inactive
13,WMKFTWWRHEYYVVS,-0.195 ± 0.79
14,MFHCSSKACLPVVDVGVVVC,0.96 ± 0.29
15,VQPVLCIVSCNRLNRQRAEM,-0.498 ± 1.1
16,CLVVHFPVCQQAKKDCDFRY,4.53 ± 0.051
17,LHILRA,0.605 ± 0.47
18,SSKFTHDYGGEDIVIDQDES,0.14 ± 0.53
19,FVDWVMCIVMYVRLR,-0.87 ± 0.41
20,KSVASVMVYYALRIPYHIEC,inactive
21,IKAFWS,inactive
22,KPHRIENGSTREDEEG,0.747 ± 0.31
23,FNVFFAS,5.97 ± 0.055
24,FCELLIVAVLLQGDSLKPQS,0.485 ± 0.36
25,VFQQFNS,0.244 ± 0.62

row,Substance,amyloid nucleation score
1,PRCYLVLKFYSQCLFSVHTF,inactive
2,FKGSDHCSKCRQVGEFVFST,-0.707 ± 1.1
3,VMFILVYTLFP,0.068 ± 0.65
4,RSQGLWMHAGPSFSVGYPFG,3.9 ± 0.085
5,SDCRWNCVSMEWIDPTHEDK,-0.518 ± 0.2
6,ACRLVYNLGRVHLGNHSDIL,-0.225 ± 1
7,SLQVDRNWGGS,0.105 ± 0.55
8,TVLLWD,inactive
9,MGLNYLKQQAARYDEGGPS,1.5 ± 0.42
10,VGCFTRSIGHAM,0.257 ± 0.23
11,VDKLGKLEVYSWLYWV,-1.86 ± 0.55
12,GHNTYGYQRMRGCDV,1.3 ± 0.38
13,GMCLTGSTSVRTNNSPHVSR,0.803 ± 0.32
14,EPGRRSYSWFCITRVFVMR,-0.171 ± 1
15,YTCCLL,5.914 ± 0.035
16,TQCSLRLKFTCYAMRSFGQY,5.02 ± 0.096
17,STLKPVNPGKVRH,0.445 ± 0.57
18,IFKINVVVSSNTAQ,2.4 ± 0.21
19,YLSYSTLLPKSETEWMYCVL,-0.631 ± 1
20,GRFDSRAFTDDMTKIPMYYL,0.045 ± 0.36
21,DRPSCEFEPMFRRWDYSEGA,0.11 ± 0.23
22,TGALHWVNAYVLFRKVCKGM,0.297 ± 0.26
23,RNVSNRPNAQIRKSVRCCWG,0.388 ± 0.42
24,TIQRRQFVNPDSVVMLRINY,-0.704 ± 0.76
25,EYSPCPSCT,3.966 ± 0.037

row,Substance,amyloid nucleation score
1,VHEPAQV,0.352 ± 0.35
2,CRVYMVDWGVVLRFDVRGSS,-0.909 ± 0.78
3,AASWTPSCNCPPWVFHGWLL,0.16 ± 0.8
4,RLRQMCFKRNSVKLLLWNRF,0.409 ± 0.8
5,YTVFSTESPCWISQSKLRLA,-0.825 ± 0.78
6,HCSCVKNSTSTDIEE,inactive
7,CGFIVKTAWGLVLATLGATY,2.54 ± 0.11
8,GCLTNTSSGMHWS,-0.208 ± 0.24
9,HYISRHQLWILFFVKCVNSR,5.01 ± 0.1
10,QEELSWSS,0.131 ± 0.25
11,SDICRREMHNTAIFLALF,1.56 ± 0.1
12,CDSWWYFSNKANSLWSKCSA,-0.723 ± 0.35
13,LRKNSLTCSSKKPEKAVTFC,-1.42 ± 1
14,NIFFNL,-0.13 ± 0.36
15,FFVKTLFEGSLDVSSNSTFF,-0.304 ± 1.1
16,TGTPYRF,1.11 ± 0.23
17,CYCEEMSMNTFKTCINTGAM,1.04 ± 0.42
18,GEYGCHHVCLVQGLFGI,-0.164 ± 0.42
19,WEASCVNPH,-0.191 ± 0.65
20,SDMLLVISWFSFVKNK,4.05 ± 0.073
21,NSITSRYNGTDGPESVSQ,-0.299 ± 0.79
22,AYSGIECGVVQWSFYRRKLI,inactive
23,YMLMMALFQRC,2.75 ± 0.15
24,TLKVRNLNVQEFVVSPNQRH,4.99 ± 0.088
25,ACQYLGLETPKWCGINRWGL,0.324 ± 0.26

row,Substance,amyloid nucleation score
1,SILIFTLTCSDRNW,-0.245 ± 0.76
2,STDAILAGKFCSGH,-0.943 ± 0.55
3,LYTLVFIKNFISMYLREILT,-1.8 ± 0.48
4,VNDKFHFILF,0.019 ± 0.8
5,VNSKNYV,-0.075 ± 0.39
6,STFLKATYRSHRRHW,0.962 ± 0.39
7,IQLIQML,0.27 ± 0.57
8,YQNIFLRTAALRAGSAD,0.765 ± 0.24
9,AESVCYQMTCIPCLLIFNTV,8.966 ± 0.054
10,SKLMQVRRGVLSGYLSESDE,-0.149 ± 0.55
11,LYFWPLTFRSGHCCGLSQVK,1.16 ± 0.61
12,VSVNSGSVKLFVIPACCSYD,6.099 ± 0.055
13,RCNMLDRYPSVGRNPVLMVV,0.063 ± 1.1
14,TFIVMKIHYRFKVKLICQTC,0.681 ± 0.46
15,YFKTWAICHWFCNWRRLWMN,0.305 ± 1
16,HTSMWFL,-0.145 ± 1.1
17,TRRGF,-0.357 ± 0.3
18,VTIFILFSLNSGGHGSDRVW,4.849 ± 0.031
19,LWLVSRRNACFA,-0.408 ± 1
20,LDSVQWNGCMIRYSYLGMGW,-0.138 ± 0.3
21,SRFYILRL,2.25 ± 0.098
22,GCWKD,1.22 ± 0.36
23,IWIKNTSLLLLCRLSHCHNI,inactive
24,RYAYLFGPGRCWMFLSVFPY,4.2 ± 0.069
25,IKLDIYNWAFSFNWFDK,6.05 ± 0.075

row,Substance,amyloid nucleation score
1,FISSADLVTNMPRI,-0.8 ± 0.31
2,FRVVRFVQTGSTFSIARFIK,-0.83 ± 0.39
3,LLKLCRRIKDATFDSLPGCA,0.93 ± 0.31
4,GDKYCGLEPYGMGHNHMYAL,0.546 ± 0.56
5,IFAVGTTTASKCVWKIVEQE,2.09 ± 0.11
6,NCLYICVCGLCMFQKLRC,-0.246 ± 0.76
7,RVGTLSWTRAFVFLGYGMVQ,-0.044 ± 0.48
8,NTNVCSSRRNPVCMMVEVVR,inactive
9,FEYYIDPRK,-1.27 ± 0.61
10,TECYLDVHLLHCRCALRSTP,6.83 ± 0.069
11,GNPTESG,0.148 ± 0.29
12,CLGSLHNVLQALAMTEPSNY,0.044 ± 0.79
13,NVCLGFFPD,0.282 ± 0.8
14,PQTLCINISFDYRYMNQVLD,7.449 ± 0.074
15,IMCRRG,0.698 ± 0.52
16,HCLIMGDNDGTLRTLGGR,-0.104 ± 0.65
17,FDWMI,0.926 ± 0.28
18,LDSGHNGDVNGG,-0.45 ± 0.64
19,LGPCSVIGQMVMYDRYGLLD,-0.313 ± 0.76
20,DNFYCHHVDLFSWMIRADLA,-0.847 ± 0.64
21,KLNNVRLGGERFDLRTLGLR,-0.104 ± 0.42
22,NGDVTVMITF,5.463 ± 0.031
23,GWSMCRVSRLTMLVSVVFFC,0.377 ± 0.26
24,VSEIRDFCVVIGF,0.573 ± 0.36
25,LGCMNDNMSNYYCGHR,-1.31 ± 0.55

row,Substance,amyloid nucleation score
1,FLYLALCKI,2.49 ± 0.14
2,YVPDGAQARLDASIFIVCSR,5.23 ± 0.055
3,SSVAKVRGSVLYMGRSGWVG,0.138 ± 0.8
4,ALILVAMSVFLSAGLRVMIK,inactive
5,VLWNKSALNSKNSRTG,2.57 ± 0.1
6,TTLYMACYSSCDEGN,-0.193 ± 0.27
7,HLYMH,1.62 ± 0.18
8,FFIWKVLDWHLNSRSYRWFG,-0.325 ± 0.76
9,FTCDSSLYAES,-0.485 ± 0.41
10,NITMMGLVVTFVAISVRLSL,0.959 ± 0.47
11,RALVD,-0.548 ± 1.1
12,KFMCSELSNFCINCILRLVV,-0.19 ± 1.1
13,ECRRF,2.78 ± 0.12
14,AFLNFTDRKSQWKVMVIEFL,3.3 ± 0.096
15,FHRPWTFLLLNLPTRGFFLR,inactive
16,VRATCWS,-0.418 ± 0.55
17,VTVRRCSFFQVY,-0.196 ± 0.41
18,SSVQNCSVCVGGPMYREFSW,4.994 ± 0.042
19,QSLSTKRRSVFFAGHQARGK,-0.42 ± 0.64
20,RAMHQDSVFVRWVEPPYCWC,-0.024 ± 1
21,SSKYYA,-0.131 ± 0.32
22,STNSDFLYQKNLPMVSSGNI,-0.408 ± 0.79
23,MHKAFWPNLALFVMNGYGGV,0.304 ± 0.42
24,MMGRTTWMDIKIYWENQCAE,-0.176 ± 1.1
25,SVLER,-0.147 ± 1.1

row,Substance,amyloid nucleation score
1,AASRWVVSHKYRWWMMRLMK,0.302 ± 0.23
2,HCLGVFARFWIWVGPDGLVI,-1.2 ± 0.78
3,TRINMGIFCLQDKVPMLRDE,3 ± 0.082
4,GTRSGSSDV,0.31 ± 0.5
5,MSSRTHLARRHPVMDVCCSR,6.639 ± 0.036
6,SHGVLRMAKIRSWGFDVTVM,0.02 ± 0.74
7,STRNSFPSDKAYLS,-0.605 ± 0.74
8,RFCRHRMRGILP,1.06 ± 0.17
9,QGELYRSANLLFVAEVSSWR,0.561 ± 0.64
10,IVLRFFGFMDHSSYRNLFKE,-0.375 ± 1.1
11,QLDRCLILPWTFSWCMDCVL,4.92 ± 0.053
12,VNHLYYCFCTLITHEVRVVS,5.363 ± 0.034
13,ARNRSSIKWGRGSDYGFTEL,0.451 ± 0.65
14,NSIRSKDSDLRRYNPLPSTA,4.46 ± 0.083
15,PGVRISVPVLLAWNCYC,8.558 ± 0.071
16,DVLRLTQTANLLCSSALRSA,1.07 ± 0.12
17,YKLFWKWGFSGITDDSTLMR,inactive
18,GKDGKLTSMAHSYHDYVMRR,0.129 ± 0.26
19,KKSSECHKSEG,0.361 ± 0.45
20,KGCVMSY,-0.578 ± 1.1
21,PVYRACILIDM,3.18 ± 0.054
22,SGGHNIVLMI,inactive
23,CSHTVFGSVCGFTLFQVH,4.06 ± 0.13
24,VIYSYMSGIVYGVMRSSPFW,inactive
